Results published in patent US6462016 (SHISEIDO, dated 2002).

Target: maxadilan (recombinant represented by SEQ ID NO: 2, peptide fragment GSIL- bound to the N-terminal cysteine … (Lutzomyia longipalpis (sand fly), UniProt P30659 24-86))
Experiment: ^125I-Max saturation binding and Scatchard plot, rabbit spleen crude membrane fraction, filtration

B1: maxadilan receptor of the rabbit (maxadilan-specific receptor in crude membrane fractions from rabbit brain and rabbit spleen) (receptor)
chain: MAGVLQVSLAALLLLPAATAMHSDCIFKKEQALCLEKIQRANDLLGLNDSSPGCPGMWDNITCWKPAHVGEMVLVSCPELFRIFNPDQGEFDFAESTSLDLADMGVVSRNCTEDGWSEPFPHYFDACGFDEYESEPGDQDYYYLSVKALYTVGYSTSLVTLTTAMVILCRFRKLHCTRNFIHMNLFVSFMLRAISVFIKDWILYAEQDSNHCFVSTVECKAVMVFFHYCVVSNYFWLFIEGLYLFTLLVETFFPERRYFYWYTMIGWGTPTVCVAVWATLRLYFDDTGCWDMNDSTALWWVIKGPVVASIMVNFVLFIGIIIILVQKLQSPDTGGNESSIYLRLARSTLLLIPLFGIHYTVFAFSPENVSKRERLVFELGLGSFQGFVVAVLYCFLNGEVQAEIKRKWRSWKVNRYFAVDFKHRHPSLASSGVNGGTQLSILSKSSSQLRMSGLPADNLAT
Kd: 0.055 nM
